Measurements published in PMC7714695.

Target: recombinant H2AK119Ub mono-nucleosomes (UniProt P04908)
Experiment: AlphaScreen or HTRF; Alphalisa: GST-SSX or GST-SSXdel7aa titrated against 10nM biotinylated nucleosomes; EC50 by nonlinear regression

Sequence of GST-SSX1 (78aa) (Q16384 111-188): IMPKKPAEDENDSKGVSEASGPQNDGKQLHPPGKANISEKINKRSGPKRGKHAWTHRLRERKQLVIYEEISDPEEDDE

- fold difference (Ub/unmod) by AlphaLisa: 4.8 fold
Substance: GST-SSX1 (78aa) (from UniProt Q16384 111-188) (domain or fragment)
